Substrate: Nc1ncnc2c1ncn2[C@@H]1O[C@H](COP(=O)(O)OP(=O)(O)OP(=O)(O)O)[C@@H](O)[C@H]1O
Test: HPLC of inositol phosphates, Michaelis-Menten fit
Type: biochemical, Arabidopsis thaliana
Conditions: co-substrate Ins(3,4,5,6)P4 (preferred), 0.08-10 mM ATP, 1 mM MgCl2, HEPES pH 7.5, 25 C

B1: ITPK1 (AtITPK1) (Arabidopsis thaliana) (protein)
chain: MSDSIQERYLVGYALAAKKQHSFIQPSLIEHSRQRGIDLVKLDPTKSLLEQGKLDCIIHKLYDVYWKENLHEFREKCPGVPVIDLPEAIERLHNRVSMLEVITQLRFPVSDSERFGVPEQVVVMDSSVLSGGGALGELKFPVIAKPLDADGSAKSHKMFLIYDQEGMKILKAPIVLQEFVNHGGVIFKVYVVGDHVKCVKRRSLPDISEEKIGTSKGSLPFSQISNLTAQEDKNIEYGEDRSLEKVEMPPLSFLTDLAKAMRESMGLNLFNFDVIRDAKDANRYLIIDINYFPGYAKMPSYEPVLTEFFWDMVTKKNHV
notes: recombinant in E. coli Rosetta 2(DE3)pLysS, pOPINF, 3C-cleavable His tag (printed as C-terminal); Ni-NTA and Superdex 75
Protein B1 has a Km of 770 ± 190 µM.
